The results in this text go back to US20220168396A1, “MULTI-RECEPTOR AGONIST AND MEDICAL USE THEREOF” (published 2022).

Square brackets hold non-standard residues; d marks the D form. Ends that are not written are not given here. Aib = CC(C)(N)C(=O)O

Test [1] deals with human glucagon-like peptide-1 receptor (human, UniProt P43220). The test is described as follows: cell-based or functional assay.
The target in test [2] is T1, human glucose-dependent insulinotropic peptide receptor (human, UniProt P48546).
T1 sequence: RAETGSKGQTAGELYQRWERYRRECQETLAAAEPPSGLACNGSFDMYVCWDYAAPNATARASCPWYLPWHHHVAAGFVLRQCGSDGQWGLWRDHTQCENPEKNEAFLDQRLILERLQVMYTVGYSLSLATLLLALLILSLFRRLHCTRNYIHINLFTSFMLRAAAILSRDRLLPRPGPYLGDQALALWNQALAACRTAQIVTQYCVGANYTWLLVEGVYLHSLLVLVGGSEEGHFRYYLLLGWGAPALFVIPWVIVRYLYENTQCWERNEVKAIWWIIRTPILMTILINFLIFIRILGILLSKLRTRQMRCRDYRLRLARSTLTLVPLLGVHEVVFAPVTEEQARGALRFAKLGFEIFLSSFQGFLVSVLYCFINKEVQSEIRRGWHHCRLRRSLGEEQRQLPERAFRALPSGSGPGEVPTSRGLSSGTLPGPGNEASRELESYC
In words: cell-based or functional assay.

B1: Compound No. 16 (peptide)
peptide: Y[Aib]EGTFTSDYSIYLEKE[Aib]AKEFVNWLLAGGPSSGAPPPSK-NH2
modifications: N-terminus assumed
SMILES: CC[C@H](C)[C@H](NC(=O)[C@H](CO)NC(=O)[C@H](Cc1ccc(O)cc1)NC(=O)[C@H](CC(=O)O)NC(=O)[C@H](CO)NC(=O)[C@@H](NC(=O)[C@H](Cc1ccccc1)NC(=O)[C@@H](NC(=O)CNC(=O)[C@H](CCC(=O)O)NC(=O)C(C)(C)NC(=O)[C@@H](N)Cc1ccc(O)cc1)[C@@H](C)O)[C@@H](C)O)C(=O)N[C@@H](Cc1ccc(O)cc1)C(=O)N[C@@H](CC(C)C)C(=O)N[C@@H](CCC(=O)O)C(=O)N[C@@H](CCCCN)C(=O)N[C@@H](CCC(=O)O)C(=O)NC(C)(C)C(=O)N[C@@H](C)C(=O)N[C@@H](CCCCN)C(=O)N[C@@H](CCC(=O)O)C(=O)N[C@@H](Cc1ccccc1)C(=O)N[C@H](C(=O)N[C@@H](CC(N)=O)C(=O)N[C@@H](Cc1c[nH]c2ccccc12)C(=O)N[C@@H](CC(C)C)C(=O)N[C@@H](CC(C)C)C(=O)N[C@@H](C)C(=O)NCC(=O)NCC(=O)N1CCC[C@H]1C(=O)N[C@@H](CO)C(=O)N[C@@H](CO)C(=O)NCC(=O)N[C@@H](C)C(=O)N1CCC[C@H]1C(=O)N1CCC[C@H]1C(=O)N1CCC[C@H]1C(=O)N[C@@H](CO)C(=O)N[C@@H](CCCCN)C(N)=O)C(C)C
As to B1, the “Activity for human GLP-1R (EC50 nM), cAMP HTRF” value (from here on “Activity for human GLP-1R”) in test [1] is 0.007 nM. In test [2], the “Activity for human GIPR (EC50 nM), cAMP HTRF” value (“Activity for human GIPR” below) was found to be 0.018 nM.

B2: Compound No. 17 (peptide)
peptide: Y[Aib]EGTFTSDYSIYLEKEA[Aib]KEFVNWLLAGGPSSGAPPPSK-NH2
modifications: N-terminus assumed
SMILES: CC[C@H](C)[C@H](NC(=O)[C@H](CO)NC(=O)[C@H](Cc1ccc(O)cc1)NC(=O)[C@H](CC(=O)O)NC(=O)[C@H](CO)NC(=O)[C@@H](NC(=O)[C@H](Cc1ccccc1)NC(=O)[C@@H](NC(=O)CNC(=O)[C@H](CCC(=O)O)NC(=O)C(C)(C)NC(=O)[C@@H](N)Cc1ccc(O)cc1)[C@@H](C)O)[C@@H](C)O)C(=O)N[C@@H](Cc1ccc(O)cc1)C(=O)N[C@@H](CC(C)C)C(=O)N[C@@H](CCC(=O)O)C(=O)N[C@@H](CCCCN)C(=O)N[C@@H](CCC(=O)O)C(=O)N[C@@H](C)C(=O)NC(C)(C)C(=O)N[C@@H](CCCCN)C(=O)N[C@@H](CCC(=O)O)C(=O)N[C@@H](Cc1ccccc1)C(=O)N[C@H](C(=O)N[C@@H](CC(N)=O)C(=O)N[C@@H](Cc1c[nH]c2ccccc12)C(=O)N[C@@H](CC(C)C)C(=O)N[C@@H](CC(C)C)C(=O)N[C@@H](C)C(=O)NCC(=O)NCC(=O)N1CCC[C@H]1C(=O)N[C@@H](CO)C(=O)N[C@@H](CO)C(=O)NCC(=O)N[C@@H](C)C(=O)N1CCC[C@H]1C(=O)N1CCC[C@H]1C(=O)N1CCC[C@H]1C(=O)N[C@@H](CO)C(=O)N[C@@H](CCCCN)C(N)=O)C(C)C
As for B2, the “Activity for human GLP-1R” value in test [1] was determined as 0.01 nM. Also, the “Activity for human GIPR” value in test [2] worked out at 0.057 nM.

B3: Compound No. 18 (peptide)
peptide: Y[Aib]EGTFTSDYSIYLE[Aib]IAAQEFVNWLLAGGPSSGAPPPSK-NH2
modifications: N-terminus assumed
SMILES: CC[C@H](C)[C@H](NC(=O)[C@H](CO)NC(=O)[C@H](Cc1ccc(O)cc1)NC(=O)[C@H](CC(=O)O)NC(=O)[C@H](CO)NC(=O)[C@@H](NC(=O)[C@H](Cc1ccccc1)NC(=O)[C@@H](NC(=O)CNC(=O)[C@H](CCC(=O)O)NC(=O)C(C)(C)NC(=O)[C@@H](N)Cc1ccc(O)cc1)[C@@H](C)O)[C@@H](C)O)C(=O)N[C@@H](Cc1ccc(O)cc1)C(=O)N[C@@H](CC(C)C)C(=O)N[C@@H](CCC(=O)O)C(=O)NC(C)(C)C(=O)N[C@H](C(=O)N[C@@H](C)C(=O)N[C@@H](C)C(=O)N[C@@H](CCC(N)=O)C(=O)N[C@@H](CCC(=O)O)C(=O)N[C@@H](Cc1ccccc1)C(=O)N[C@H](C(=O)N[C@@H](CC(N)=O)C(=O)N[C@@H](Cc1c[nH]c2ccccc12)C(=O)N[C@@H](CC(C)C)C(=O)N[C@@H](CC(C)C)C(=O)N[C@@H](C)C(=O)NCC(=O)NCC(=O)N1CCC[C@H]1C(=O)N[C@@H](CO)C(=O)N[C@@H](CO)C(=O)NCC(=O)N[C@@H](C)C(=O)N1CCC[C@H]1C(=O)N1CCC[C@H]1C(=O)N1CCC[C@H]1C(=O)N[C@@H](CO)C(=O)N[C@@H](CCCCN)C(N)=O)C(C)C)[C@@H](C)CC
As to B3, in test [1], the “Activity for human GLP-1R” value was 0.022 nM. For the same molecule, the “Activity for human GIPR” value in test [2] came out at 0.012 nM.

B4: Compound No. 14 (peptide)
peptide: Y[Aib]EGTFTSDYSIYLEKIAAQEFVNWLLAGGPSSGAPPPSK-NH2
modifications: N-terminus assumed
SMILES: CC[C@H](C)[C@H](NC(=O)[C@H](CCCCN)NC(=O)[C@H](CCC(=O)O)NC(=O)[C@H](CC(C)C)NC(=O)[C@H](Cc1ccc(O)cc1)NC(=O)[C@@H](NC(=O)[C@H](CO)NC(=O)[C@H](Cc1ccc(O)cc1)NC(=O)[C@H](CC(=O)O)NC(=O)[C@H](CO)NC(=O)[C@@H](NC(=O)[C@H](Cc1ccccc1)NC(=O)[C@@H](NC(=O)CNC(=O)[C@H](CCC(=O)O)NC(=O)C(C)(C)NC(=O)[C@@H](N)Cc1ccc(O)cc1)[C@@H](C)O)[C@@H](C)O)[C@@H](C)CC)C(=O)N[C@@H](C)C(=O)N[C@@H](C)C(=O)N[C@@H](CCC(N)=O)C(=O)N[C@@H](CCC(=O)O)C(=O)N[C@@H](Cc1ccccc1)C(=O)N[C@H](C(=O)N[C@@H](CC(N)=O)C(=O)N[C@@H](Cc1c[nH]c2ccccc12)C(=O)N[C@@H](CC(C)C)C(=O)N[C@@H](CC(C)C)C(=O)N[C@@H](C)C(=O)NCC(=O)NCC(=O)N1CCC[C@H]1C(=O)N[C@@H](CO)C(=O)N[C@@H](CO)C(=O)NCC(=O)N[C@@H](C)C(=O)N1CCC[C@H]1C(=O)N1CCC[C@H]1C(=O)N1CCC[C@H]1C(=O)N[C@@H](CO)C(=O)N[C@@H](CCCCN)C(N)=O)C(C)C
With B4, the “Activity for human GLP-1R” value in test [1] was found to be 0.008 nM. Besides, in test [2], the “Activity for human GIPR” value came to 0.006 nM.

B5: Compound No. 15 (peptide)
peptide: Y[Aib]EGTFTSDYSIYLEKIAQKEFVNWLLAGGPSSGAPPPSK-NH2
modifications: N-terminus assumed
SMILES: CC[C@H](C)[C@H](NC(=O)[C@H](CCCCN)NC(=O)[C@H](CCC(=O)O)NC(=O)[C@H](CC(C)C)NC(=O)[C@H](Cc1ccc(O)cc1)NC(=O)[C@@H](NC(=O)[C@H](CO)NC(=O)[C@H](Cc1ccc(O)cc1)NC(=O)[C@H](CC(=O)O)NC(=O)[C@H](CO)NC(=O)[C@@H](NC(=O)[C@H](Cc1ccccc1)NC(=O)[C@@H](NC(=O)CNC(=O)[C@H](CCC(=O)O)NC(=O)C(C)(C)NC(=O)[C@@H](N)Cc1ccc(O)cc1)[C@@H](C)O)[C@@H](C)O)[C@@H](C)CC)C(=O)N[C@@H](C)C(=O)N[C@@H](CCC(N)=O)C(=O)N[C@@H](CCCCN)C(=O)N[C@@H](CCC(=O)O)C(=O)N[C@@H](Cc1ccccc1)C(=O)N[C@H](C(=O)N[C@@H](CC(N)=O)C(=O)N[C@@H](Cc1c[nH]c2ccccc12)C(=O)N[C@@H](CC(C)C)C(=O)N[C@@H](CC(C)C)C(=O)N[C@@H](C)C(=O)NCC(=O)NCC(=O)N1CCC[C@H]1C(=O)N[C@@H](CO)C(=O)N[C@@H](CO)C(=O)NCC(=O)N[C@@H](C)C(=O)N1CCC[C@H]1C(=O)N1CCC[C@H]1C(=O)N1CCC[C@H]1C(=O)N[C@@H](CO)C(=O)N[C@@H](CCCCN)C(N)=O)C(C)C
Take B5: the “Activity for human GLP-1R” value in test [1] was found to be 0.015 nM. In test [2], the “Activity for human GIPR” value was 0.009 nM.
